Patent US20110123544A1 (published 2011)

T1: recombinant human IL-12 (rhIL-12) (human, UniProt P29459 23-219; P29460 23-328)
T1 chain 1: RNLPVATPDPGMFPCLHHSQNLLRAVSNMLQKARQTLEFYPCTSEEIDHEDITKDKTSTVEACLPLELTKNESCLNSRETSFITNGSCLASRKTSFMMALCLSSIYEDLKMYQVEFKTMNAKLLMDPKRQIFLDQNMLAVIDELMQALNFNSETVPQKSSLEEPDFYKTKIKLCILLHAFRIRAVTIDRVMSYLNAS
T1 chain 2: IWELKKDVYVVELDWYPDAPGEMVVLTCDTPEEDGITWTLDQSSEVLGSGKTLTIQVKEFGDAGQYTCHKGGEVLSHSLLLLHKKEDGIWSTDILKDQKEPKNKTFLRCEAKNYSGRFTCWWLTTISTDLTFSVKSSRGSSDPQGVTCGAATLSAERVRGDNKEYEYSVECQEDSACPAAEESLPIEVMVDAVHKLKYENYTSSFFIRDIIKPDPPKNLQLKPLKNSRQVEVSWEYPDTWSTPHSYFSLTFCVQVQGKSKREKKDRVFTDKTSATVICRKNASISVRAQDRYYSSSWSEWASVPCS

T2: recombinant human interleukin 12 (p40/p35 heterodimer) (human, UniProt P29460 23-328; P29459 23-219)
T2 chain 1: T1 chain 2
T2 chain 2: T1 chain 1

B1: Y61 L31 I (peptide)
chain: SGGRSNIGSITVK
B2: Y61 L32 K (peptide)
chain: SGGRSNIGSNKVK
B3: Y61 L30 N (peptide)
chain: SGGRSNIGNNTVK
B4: Y61 L31 G (peptide)
chain: SGGRSNIGSGTVK
B5: Y61 L31 H (peptide)
chain: SGGRSNIGSHTVK
B6: Y61 L30 Y (peptide)
chain: SGGRSNIGYNTVK
B7: Y61 L32 A (peptide)
chain: SGGRSNIGSNAVK
B8: Y61 L32 Q (peptide)
chain: SGGRSNIGSNQVK
B9: Y61 L32 C (peptide)
chain: SGGRSNIGSNCVK
B10: Y61 L32 P (peptide)
chain: SGGRSNIGSNPVK
B11: Y61 L32 S (peptide)
chain: SGGRSNIGSNSVK
B12: Y61 L32 L (peptide)
chain: SGGRSNIGSNLVK
B13: Y61 L32 Y (peptide)
chain: SGGRSNIGSNYVK
B14: Y61 L32 N (peptide)
chain: SGGRSNIGSNNVK
B15: Y61 L31 D (peptide)
chain: SGGRSNIGSDTVK
B16: Y61 L31 M (peptide)
chain: SGGRSNIGSMTVK
B17: Y61 L31 Y (peptide)
chain: SGGRSNIGSYTVK
B18: Y61 L32 V (peptide)
chain: SGGRSNIGSNVVK
B19: Y61 L30 D (peptide)
chain: SGGRSNIGDNTVK
B20: Y61 L30 T (peptide)
chain: SGGRSNIGTNTVK
B21: Y61 L30 C (peptide)
chain: SGGRSNIGCNTVK
B22: Y61 L30 P (peptide)
chain: SGGRSNIGPNTVK
B23: Y61 L32 R (peptide)
chain: SGGRSNIGSNRVK
B24: Y61 L30 K (peptide)
chain: SGGRSNIGKNTVK
B25: Y61 L30 R (peptide)
chain: SGGRSNIGRNTVK
B26: Y61 H98 F (peptide)
chain: HGSFDN
B27: Y61 H97 R (peptide)
chain: HGRHDN
B28: Y61 H97 W (peptide)
chain: HGWHDN
B29: Y61 L93 W (peptide)
chain: QSYDWGTHPALL
B30: Y61 L94 H (peptide)
chain: QSYDRHTHPALL
B31: Y61 L94 A (peptide)
chain: QSYDRATHPALL
B32: Y61 L92 T (peptide)
chain: QSYTRGTHPALL
B33: Y61 L92 L (peptide)
chain: QSYLRGTHPALL
B34: Y61 L92 F (peptide)
chain: QSYFRGTHPALL
B35: Y61 L93 P (peptide)
chain: QSYDPGTHPALL
B36: Y61 L93 T (peptide)
chain: QSYDTGTHPALL
B37: Y61 L94 C (peptide)
chain: QSYDRCTHPALL
B38: Y61 L93 L (peptide)
chain: QSYDLGTHPALL
B39: Y61 L93 S (peptide)
chain: QSYDSGTHPALL
B40: Y61 L94 T (peptide)
chain: QSYDRTTHPALL
B41: Y61 L92 Y (peptide)
chain: QSYYRGTHPALL
B42: Y61 L93 Q (peptide)
chain: QSYDQGTHPALL
B43: Y61 L93 G (peptide)
chain: QSYDGGTHPALL
B44: Y61 L94 S (peptide)
chain: QSYDRSTHPALL
B45: Y61 L93 Y (peptide)
chain: QSYDYGTHPALL
B46: Y61 L92 N (peptide)
chain: QSYNRGTHPALL
B47: Y61 L93 I (peptide)
chain: QSYDIGTHPALL
B48: Y61 L94 D (peptide)
chain: QSYDRDTHPALL
B49: Y61 L93 N (peptide)
chain: QSYDNGTHPALL
B50: Y61 L92 Q (peptide)
chain: QSYQRGTHPALL
B51: Y61 L92 G (peptide)
chain: QSYGRGTHPALL
B52: Y61 L94 W (peptide)
chain: QSYDRWTHPALL
B53: Y61 L94 L (peptide)
chain: QSYDRLTHPALL
B54: Y61 L94 Q (peptide)
chain: QSYDRQTHPALL
B55: Y61 L94 I (peptide)
chain: QSYDRITHPALL
B56: Y61 L94 P (peptide)
chain: QSYDRPTHPALL
B57: Y61 L92 A (peptide)
chain: QSYARGTHPALL
B58: Y61 L93 D (peptide)
chain: QSYDDGTHPALL
B59: Y61 L92 W (peptide)
chain: QSYWRGTHPALL
B60: Y61 L94 R (peptide)
chain: QSYDRRTHPALL
B61: Y61 L92 I (peptide)
chain: QSYIRGTHPALL
B62: Y61 L93 V (peptide)
chain: QSYDVGTHPALL
B63: Y61 L93 C (peptide)
chain: QSYDCGTHPALL
B64: Y61 L94 V (peptide)
chain: QSYDRVTHPALL
B65: Y61 L92 S (peptide)
chain: QSYSRGTHPALL
B66: Y61 L93 M (peptide)
chain: QSYDMGTHPALL
B67: Y61 L93 A (peptide)
chain: QSYDAGTHPALL
B68: Y61 L92 C (peptide)
chain: QSYCRGTHPALL

Target: T1, recombinant human IL-12 (rhIL-12)
Assay: BIAcore

Row | Binder | koff
1 | B1 | 9.7e-05 s⁻¹
2 | B2 | 0.000318 s⁻¹
3 | B3 | 0.000166 s⁻¹
4 | B4 | 0.000366 s⁻¹
5 | B5 | 0.000315 s⁻¹
6 | B6 | 0.000483 s⁻¹
7 | B7 | 0.00191 s⁻¹
8 | B8 | 0.00247 s⁻¹
9 | B9 | 0.00381 s⁻¹
10 | B10 | 0.000424 s⁻¹
11 | B11 | 0.00191 s⁻¹
12 | B12 | 0.00215 s⁻¹
13 | B13 | 0.000213 s⁻¹
14 | B14 | 0.00197 s⁻¹
15 | B15 | 0.00058 s⁻¹
16 | B16 | 0.000174 s⁻¹
17 | B17 | 0.000357 s⁻¹
18 | B18 | 0.00164 s⁻¹
19 | B19 | 0.00022 s⁻¹
20 | B20 | 0.000226 s⁻¹
21 | B21 | 0.000186 s⁻¹
22 | B22 | 0.00025 s⁻¹
23 | B23 | 0.0069 s⁻¹
24 | B24 | 0.000346 s⁻¹
25 | B25 | 0.000182 s⁻¹

Target: T2, recombinant human interleukin 12 …
Assay: BIAcore

Row | Binder | koff
26 | B26 | 0.000688 s⁻¹
27 | B27 | 0.00224 s⁻¹
28 | B28 | 0.00239 s⁻¹

Target: T1, recombinant human IL-12 (rhIL-12)
Assay: BIAcore
Remark: another data set of the same source

Row | Binder | koff
29 | B29 | 0.000349 s⁻¹
30 | B30 | 0.000187 s⁻¹
31 | B31 | 0.000526 s⁻¹
32 | B32 | 0.000408 s⁻¹
33 | B33 | 0.000728 s⁻¹
34 | B34 | 0.000449 s⁻¹
35 | B35 | 0.000349 s⁻¹
36 | B36 | 0.000316 s⁻¹
37 | B37 | 0.00052 s⁻¹
38 | B38 | 0.0003 s⁻¹
39 | B39 | 0.000341 s⁻¹
40 | B40 | 0.000305 s⁻¹
41 | B41 | 0.000511 s⁻¹
42 | B42 | 0.0003 s⁻¹
43 | B43 | 0.000392 s⁻¹
44 | B44 | 0.000287 s⁻¹
45 | B45 | 0.000335 s⁻¹
46 | B46 | 0.000347 s⁻¹
47 | B47 | 0.000295 s⁻¹
48 | B48 | 0.000253 s⁻¹

Row | Binder | koff
49 | B49 | 0.000316 s⁻¹
50 | B50 | 0.000427 s⁻¹
51 | B51 | 0.000349 s⁻¹
52 | B52 | 0.000293 s⁻¹
53 | B53 | 0.000244 s⁻¹
54 | B54 | 0.00025 s⁻¹
55 | B55 | 0.000276 s⁻¹
56 | B56 | 0.000332 s⁻¹
57 | B57 | 0.000357 s⁻¹
58 | B58 | 0.000343 s⁻¹
59 | B59 | 0.00072 s⁻¹
60 | B60 | 0.000231 s⁻¹
61 | B61 | 0.000618 s⁻¹
62 | B62 | 0.000269 s⁻¹
63 | B63 | 0.00032 s⁻¹
64 | B64 | 0.000351 s⁻¹
65 | B65 | 0.000307 s⁻¹
66 | B66 | 0.000275 s⁻¹
67 | B67 | 0.00031 s⁻¹
68 | B68 | 0.000453 s⁻¹
